The values that follow come from article PMC5656576.

Series [1] addresses NP (nucleoprotein), His-tagged (Influenza A virus, UniProt P03466 1-498). Kind of series: EMSA. Conditions: protein: recombinant; tags: C-terminal His tag (encoded in primer); label: 32P; single strand; partly complementary ends. Background: A gel shift assay detects complexes by their altered migration in electrophoresis.
The target of series [2] is NP in preformed NP-UAP56 complex (Influenza A virus, UniProt P03466 1-498). Kind of series: EMSA. Conditions: protein: recombinant; tags: C-terminal His tag (encoded in primer); chain copies: 6; label: 32P; single strand; partly complementary ends.
NP in preformed NP-UAP56 complex, sequence (P03466 whole entry, one chain of several): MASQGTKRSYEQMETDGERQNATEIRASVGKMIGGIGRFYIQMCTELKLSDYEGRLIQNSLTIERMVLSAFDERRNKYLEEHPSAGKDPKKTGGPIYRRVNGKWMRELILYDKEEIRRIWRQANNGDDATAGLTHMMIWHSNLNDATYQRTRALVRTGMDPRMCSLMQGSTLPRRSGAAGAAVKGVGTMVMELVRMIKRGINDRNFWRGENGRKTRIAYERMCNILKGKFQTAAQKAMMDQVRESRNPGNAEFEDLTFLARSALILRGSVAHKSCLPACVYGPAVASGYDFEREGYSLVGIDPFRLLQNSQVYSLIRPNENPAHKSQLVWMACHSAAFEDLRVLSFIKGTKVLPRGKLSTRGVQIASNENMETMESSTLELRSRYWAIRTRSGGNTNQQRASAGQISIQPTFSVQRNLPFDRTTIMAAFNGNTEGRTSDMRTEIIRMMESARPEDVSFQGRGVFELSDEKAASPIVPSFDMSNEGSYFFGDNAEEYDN
Series [3] concerns the target T1, UAP56 (UniProt Q13838 1-428). Kind of series: EMSA. As to conditions: protein: recombinant; tags: GST tag removed with PreScission protease; chain copies: 2; label: 32P; single strand; partly complementary ends.
The target of series [4] is T1, UAP56. Description: EMSA; UAP56 alone, 0.8-7.2 pmol. As to conditions: protein: recombinant; tags: GST tag removed with PreScission protease; chain copies: 2; label: 32P; single strand; partly complementary ends.

T1 sequence (Q13838 whole entry): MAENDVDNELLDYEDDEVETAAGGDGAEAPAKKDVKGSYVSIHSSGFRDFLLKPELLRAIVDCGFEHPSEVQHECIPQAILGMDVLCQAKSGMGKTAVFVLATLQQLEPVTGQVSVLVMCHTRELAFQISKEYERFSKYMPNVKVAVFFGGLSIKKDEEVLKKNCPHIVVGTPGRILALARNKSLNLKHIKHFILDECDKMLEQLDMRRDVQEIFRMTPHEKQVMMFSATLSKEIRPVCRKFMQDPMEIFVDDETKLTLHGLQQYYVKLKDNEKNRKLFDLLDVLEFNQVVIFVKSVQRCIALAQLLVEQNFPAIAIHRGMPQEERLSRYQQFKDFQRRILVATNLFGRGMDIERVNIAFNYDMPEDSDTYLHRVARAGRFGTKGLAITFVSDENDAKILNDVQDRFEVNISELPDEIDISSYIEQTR
NP (nucleoprotein), His-tagged, sequence (P03466 whole entry): as the sequence (P03466 whole entry, one chain of several) above

B1: 53 nt model vRNA (ssRNA)
RNA: AGUAGAAACAAGGGUGUUUUUUCAUAUCAUUUAAACUUCACCCUGCUUUUGCU
Turning to B1, the binding result in series [1] is “binds”; in series [2], “binds”; in the series with UAP56 [3] it was “no binding”.

B2: 165 nt model vRNA (ssRNA)
RNA: AGUAGAAACAAGGUCGUUUUUAAACUAUUCGACACUAAUUGAUGGCCAUCCGAAUUUAUGGUCCACGGUGGUUUUUGUGAGUAUCUCGCGGGUGCGAGACUGCGACAUUAGAUUUCUUAGUUCUUUUAUUCUUUCCAUAUUGAAUAUAAUUGACCUGCUUUCGCU
For B2, the binding result in series [1] is recorded as “binds”; in series [2], “binds”; in the series with UAP56 [4], “no binding”.
